Tests used:
[1] = target: ribosome-nascent chain complex (RNC) of Sec61β, TMD inside the ribosomal tunnel (UniProt P60468); experiment: co-IP
[2] = target: ribosomes purified under native conditions from reticulocyte lysate; experiment: co-sedimentation

UniProt P60468, sequence (P60468 whole entry, looked up, one chain of several): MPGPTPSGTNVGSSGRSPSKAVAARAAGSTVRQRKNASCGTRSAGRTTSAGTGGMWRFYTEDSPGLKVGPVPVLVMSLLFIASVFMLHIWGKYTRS

Substance	occupancy of RNCs [1] [%]	percent ribosome-bound [2] [%]
Bat3 complex (Bat3, TRC35 and Ubl4A) (from UniProt P46379;Q7L5D6;P11441)	27	–
SRP (signal recognition particle), followed by its subunit SRP54 (from UniProt P61011 1-504) (complex)	7	30 to 50
TRC40 (from UniProt O43681 1-348) (natural protein)	–	< 1
